Where two headings read alike, the source gives them in different places. Each block holds one binder with its values, some of them ahead of it.
How the values were obtained:
[1] = biological target: T1, Claudin 18.2 (CLDN18.2), expressed on CHOS-CLDN 18.2 / HEK293-CLDN 18.2 / HCC827-CLDN 18.2 cells (human, UniProt P56856-2 1-261); assay: FACS, CHOS-CLDN18.2 cells, 0 µg/ml (background)
T1 construct: whole, on cells; The species is not repeated for the CHOS-CLDN 18.2 cells; also called claudin-18A2
Protocol: (§1) The initial concentration of the antibody was 20 μg/ml, it was diluted at 1:4, and incubated at 4° C. for 60 min.

[2] = biological target: T1, Claudin 18.2 (CLDN18.2), expressed on …; assay: FACS, MFI on CHOS-CLDN18.2 over MFI on CHOS-CLDN18.1, 10 µg/ml
Protocol: (§2) The initial concentration of the antibody was 20 μg/mkit was diluted at 1:4, and incubated at 4° C. for 60 min.

[3] = biological target: T1, Claudin 18.2 (CLDN18.2), expressed on …; assay: FACS, CHOS-CLDN18.2 cells, 0.020 µg/ml
Protocol: as §1

[4] = biological target: T1, Claudin 18.2 (CLDN18.2), expressed on …; assay: cell-based or functional assay
[5] = biological target: T1, Claudin 18.2 (CLDN18.2), expressed on …; assay: FACS, CHOS-CLDN18.2 cells, 20 µg/ml
Protocol: as §1

[6] = biological target: T1, Claudin 18.2 (CLDN18.2), expressed on …; assay: FACS, CHOS-CLDN18.2 cells, 5 µg/ml
Protocol: as §1

[7] = biological target: T1, Claudin 18.2 (CLDN18.2), expressed on …; assay: FACS, CHOS-CLDN18.2 cells
Protocol: as §1

[8] = biological target: T1, Claudin 18.2 (CLDN18.2), expressed on …; assay: FACS, CHOS-CLDN18.2 cells, 10 µg/ml
Protocol: as §2

[9] = biological target: T1, Claudin 18.2 (CLDN18.2), expressed on …; assay: FACS, CHOS-CLDN18.2 cells, 0.078 µg/ml
Protocol: as §1

[10] = biological target: T1, Claudin 18.2 (CLDN18.2), expressed on …; assay: FACS, CHOS-CLDN18.2 cells, 0.005 µg/ml
Protocol: as §1

[11] = biological target: T1, Claudin 18.2 (CLDN18.2), expressed on …; assay: FACS, CHOS-CLDN18.2 cells, 0.313 µg/ml
Protocol: as §1

[12] = biological target: T1, Claudin 18.2 (CLDN18.2), expressed on …; assay: FACS, CHOS-CLDN18.2 cells, 1.250 µg/ml
Protocol: as §1

[13] = biological target: T1, Claudin 18.2 (CLDN18.2), expressed on …; assay: FACS, CHOS-CLDN18.2 cells; remark: listed apart in the source
Protocol: as §1

[14] = biological target: T1, Claudin 18.2 (CLDN18.2), expressed on …; assay: FACS, CHOS-CLDN18.2 cells, 0.020 µg/ml; remark: listed apart in the source
Protocol: as §1

[15] = biological target: T1, Claudin 18.2 (CLDN18.2), expressed on …; assay: FACS, CHOS-CLDN18.2 cells, 1.250 µg/ml; remark: listed apart in the source
Protocol: as §1

[16] = biological target: T1, Claudin 18.2 (CLDN18.2), expressed on …; assay: FACS, CHOS-CLDN18.2 cells, 0.005 µg/ml; remark: listed apart in the source
Protocol: as §1

[17] = biological target: T1, Claudin 18.2 (CLDN18.2), expressed on …; assay: FACS, CHOS-CLDN18.2 cells, 20 µg/ml; remark: listed apart in the source
Protocol: as §1

[18] = biological target: T1, Claudin 18.2 (CLDN18.2), expressed on …; assay: FACS, CHOS-CLDN18.2 cells, 5 µg/ml; remark: listed apart in the source
Protocol: as §1

[19] = biological target: T1, Claudin 18.2 (CLDN18.2), expressed on …; assay: FACS, CHOS-CLDN18.2 cells, 0.078 µg/ml; remark: listed apart in the source
Protocol: as §1

[20] = biological target: T1, Claudin 18.2 (CLDN18.2), expressed on …; assay: FACS, CHOS-CLDN18.2 cells, 0.313 µg/ml; remark: listed apart in the source
Protocol: as §1

[21] = biological target: T1, Claudin 18.2 (CLDN18.2), expressed on …; assay: FACS, CHOS-CLDN18.2 cells, 0 µg/ml (background); remark: listed apart in the source
Protocol: as §1

- FACS reading [1]: 732
- CLDN18.2/CLDN18.1 (MFI ratio) [2]: 470
- FACS reading [3]: 13800
- FACS reading [5]: 169000
- FACS reading [6]: 139000
- EC50 [7]: 0.223 mg/L
- max [7]: 169000
- MFI [8]: 620000
- FACS reading [9]: 35400
- FACS reading [10]: 4930
- FACS reading [11]: 104000
- FACS reading [12]: 123000
B1: QP14451440 (antibody, human IgG1, kappa, V domains shown)
VH: QVQLVQSGAEVKKPGASVKVSCKASGYAFSSYWMNWVRQAPGQGLEWIGQIYPGNGDTTYNGKFKGRVTMTADKSTSTVYMELSSLRSEDTAVYFCARFVKGNAMDYWGQGTLVTVSS
VL: DIVMTQSPDSLAVSLGERATISCKSSQSLLNSGNQKNYLTWYQQKPGQPPKLLIYWASTRESGVPDRFSGSGSGTDFTLTISSLQAEDVAVYYCQNAYSYPFTFGQGTKLEIKR
notes: Humanized from QP192193; also called QP14401445
- EC50 of killing, ADCC (PBMC, HEK293-CLDN18.2 cells) [4]: 0.0082 mg/L
- Killing percentage, ADCC (PBMC, HEK293-CLDN18.2 cells), 0 µg/ml [4]: 5.43%
- Killing percentage, ADCC (PBMC, HEK293-CLDN18.2 cells), 0.0001024 µg/ml [4]: -1.11%
- Killing percentage, ADCC (PBMC, HEK293-CLDN18.2 cells), 0.000512 µg/ml [4]: 10%
- Killing percentage, ADCC (PBMC, HEK293-CLDN18.2 cells), 0.00256 µg/ml [4]: 10.8%
- Killing percentage, ADCC (PBMC, HEK293-CLDN18.2 cells), 0.0128 µg/ml [4]: 28.5%
- Killing percentage, ADCC (PBMC, HEK293-CLDN18.2 cells), 0.064 µg/ml [4]: 42.1%
- Killing percentage, ADCC (PBMC, HEK293-CLDN18.2 cells), 0.32 µg/ml [4]: 43.7%
- Killing percentage, ADCC (PBMC, HEK293-CLDN18.2 cells), 1.6 µg/ml [4]: 37.8%
- Killing percentage, ADCC (PBMC, HEK293-CLDN18.2 cells), 8 µg/ml [4]: 42.7%
- Killing percentage, ADCC (PBMC, HEK293-CLDN18.2 cells), 40 µg/ml [4]: 47.8%

- EC50 [13]: 0.573 mg/L
- max [13]: 146000
- FACS reading [14]: 6390
- FACS reading [15]: 107000
- CLDN18.2/CLDN18.1 (MFI ratio) [2]: 430
- FACS reading [16]: 2470
- MFI [8]: 477000
- FACS reading [17]: 146000
- FACS reading [18]: 114000
- FACS reading [19]: 13400
- FACS reading [20]: 44800
- FACS reading [21]: 732
B3: QP14561454 (antibody, human IgG1, kappa, V domains shown)
VH: QVQLVQSGAEVKKPGASVKVSCKASGYTFTNYFVHWVRQAPGQGLEWMGYINPYNDDTKYNEKFKGRVTMTRDTSTSTVYMELSSLRSEDTAVYYCLSLRFFAYWGQGTLVTVSS
VL: DIVMTQSPDSLAVSLGERATISCKSSQSLLNSGNQKNYLTWYQQKPGQAPKLLIYWASTRESGVPDRFSGSGSGTDFTLTISSVQAEDVAVYFCQNDYSYPLTFGGGTKVEIKR
notes: Humanized from QP201202

- EC50 [13]: 0.425 mg/L
- max [13]: 104000
- FACS reading [14]: 5920
- FACS reading [15]: 91400
- CLDN18.2/CLDN18.1 (MFI ratio) [2]: 581
- FACS reading [16]: 2420
- MFI [8]: 554000
- FACS reading [17]: 104000
- FACS reading [18]: 83000
- FACS reading [19]: 13600
- FACS reading [20]: 33300
- FACS reading [21]: 732
B4: QP14581453 (antibody, human IgG1, kappa, V domains shown)
VH: QVQLVQSGAEVKKPGASVKVSCKASGYTFTNYFVHWVKQAPGQGLEWIGYINPYNDDTKYNEKFKGKATLTRDTSTSTVYMELSSLRSEDTAVYYCLSLRFFAYWGQGTLVTVSS
VL: DIVMTQSPDSLAVSLGERATISCKSSQSLLNSGNQKNYLTWYQQKPGQAPKLLIYWASTRESGVPDRFSGSGSGTDFTLTISSLQAEDVAVYYCQNDYSYPLTFGGGTKVEIKR
notes: Humanized from QP201202

Second part, the binder before the results:

B2: QP14581454 (antibody, human IgG1, kappa, V domains shown)
VH: QVQLVQSGAEVKKPGASVKVSCKASGYTFTNYFVHWVKQAPGQGLEWIGYINPYNDDTKYNEKFKGKATLTRDTSTSTVYMELSSLRSEDTAVYYCLSLRFFAYWGQGTLVTVSS
VL: DIVMTQSPDSLAVSLGERATISCKSSQSLLNSGNQKNYLTWYQQKPGQAPKLLIYWASTRESGVPDRFSGSGSGTDFTLTISSVQAEDVAVYFCQNDYSYPLTFGGGTKVEIKR
notes: Humanized from QP201202
- EC50 [13]: 0.363 mg/L
- max [13]: 73700
- FACS reading [14]: 4470
- FACS reading [15]: 56100
- CLDN18.2/CLDN18.1 (MFI ratio) [2]: 506
- FACS reading [16]: 2370
- MFI [8]: 502000
- FACS reading [17]: 58600
- FACS reading [18]: 73700
- FACS reading [19]: 11500
- FACS reading [20]: 30800
- FACS reading [21]: 732

B5: QP201202 (antibody, human IgG1, V domains shown)
VH: EVQLQQSGPELVKPGASVKMSCKASGYTFTNYFVHWVKQKPGQGLEWIGYINPYNDDTKYNEKFKGKATLTSDKSSSTAYMDLSSLTSEDSAVYYCLSLRFFAYWGQGTLVTVSA
VL: DIVMTQSPSSLTVTAGEKVTMSCKSSQSLLNSGNQKNYLTWYQQKPGQAPKLLIYWASTRESGVPDRFIGSGSGTDFTLTISHVQAEDLAVYFCQNDYSYPLTFGAGTNLELK
notes: Chimeric; also called 44C6
- EC50 [13]: 0.417 mg/L
- max [13]: 113000
- FACS reading [14]: 4770
- FACS reading [15]: 92700
- CLDN18.2/CLDN18.1 (MFI ratio) [2]: 381
- FACS reading [16]: 2260
- MFI [8]: 439000
- FACS reading [17]: 113000
- FACS reading [18]: 81100
- FACS reading [19]: 12600
- FACS reading [20]: 38000
- FACS reading [21]: 732
